Laboratory results published in patent publication US20100145006A1, “SUPRAVALENT COMPOUNDS” (priority 2005, published 2010).
Bridges are numbered along the chain shown (N, C = ends). Where no end group is shown, it is not given here. Side-chain parts run from the residue outwards. [ ]: non-standard residue; d: D form. 1Nal = N[C@@H](Cc1cccc2ccccc12)C(=O)O

T1: erythropoietin receptor (EPOR) on human TF-1 cells (human, UniProt P19235 25-508)
T1 sequence (looked up): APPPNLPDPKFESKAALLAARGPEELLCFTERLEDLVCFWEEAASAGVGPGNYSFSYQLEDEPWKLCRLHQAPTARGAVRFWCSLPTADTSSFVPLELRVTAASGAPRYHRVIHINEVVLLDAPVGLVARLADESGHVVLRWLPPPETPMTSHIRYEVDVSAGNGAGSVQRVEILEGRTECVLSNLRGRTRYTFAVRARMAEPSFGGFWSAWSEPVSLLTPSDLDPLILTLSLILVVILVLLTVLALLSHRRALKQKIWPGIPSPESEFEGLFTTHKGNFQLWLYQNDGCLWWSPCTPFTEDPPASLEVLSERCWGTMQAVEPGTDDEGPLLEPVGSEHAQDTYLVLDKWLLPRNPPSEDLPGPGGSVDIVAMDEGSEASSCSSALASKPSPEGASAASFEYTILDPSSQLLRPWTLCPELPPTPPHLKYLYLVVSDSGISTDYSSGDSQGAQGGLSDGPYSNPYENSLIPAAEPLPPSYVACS

B1: SEQ ID NO 2 peptide GGTYSCHFGKLTWVCKKQGG (BB49, monomer) (peptide)
peptide: Ac-GGTYSCHFGKLTWVCKKQGG
modifications: disulfide 6-15 (inferred)
B2: SEQ ID NO 4 peptide GGTYSCHFGKLTWVCKPQGG (peptide)
peptide: GGTYSCHFGKLTWVCKPQGG
modifications: disulfide 6-15 (inferred)
B3: SEQ ID NO 5 peptide GGTYSCHFGRLTWVCKPQGG (peptide)
peptide: GGTYSCHFGRLTWVCKPQGG
modifications: disulfide 6-15 (inferred)
B4: SEQ ID NO 6 peptide GGTYSCHFGRLTWVCKKQGG (peptide)
peptide: GGTYSCHFGRLTWVCKKQGG
modifications: disulfide 6-15 (inferred)
B5: peptide GGTYSCHFGPLTWVCKKQGG (peptide)
peptide: GGTYSCHFGPLTWVCKKQGG
modifications: disulfide 6-15 (inferred)
B6: peptide GGTYSCHFAKLTWVCKKQGG (peptide)
peptide: GGTYSCHFAKLTWVCKKQGG
modifications: disulfide 6-15 (inferred)

Assays:
[1] = test system: TF-1 Cells; experiment: TF-1 proliferation assay (MTS, viable cell number), EPO-like activity; assay type: cell-based, human; details: normalized plots
Protocol: An experiment was performed in a standard TF-1 cell assay as recommended by the European Pharmacopoe for the determination of EPO-like activity in vitro (please also see below). Basically, TF-1 cells (their proliferation being dependent from the presence of EPO-like activity) are cultured in the presence various concentrations of EPO or EPO-mimetic substances. The resulting cell numbers are quantified using colorimetric MTT-assay and photometric measurements.
In a TF-1 proliferation assay, TF-1 cells are seeded and cultured for several days in varying concentrations of EPO or EPO mimetic peptides in a multi-well plate.
For optimal results TF-1 cells should be cultured for two days in the absence of any cytokine (starved) before starting the assay. Three days after starting the assay, cell proliferation is measured indirectly by assaying the number of viable cells.
A tetrazolium reagent, called MTS, is added which is reduced to coloured formazan. This reaction depends on NADH and NADPH, in other words depends on mitochondrial activity. The amount of formazan is measured spectrophotometrically. Using a range of known cell numbers for calibration, it is possible to determine the absolute number of viable cells present under each condition. The principal design is also illustrated in FIG. 24.
The activity of a certain agent in this assay is determined by: • 1. assessing whether this agent causes an increase in the number of viable cells at a certain concentration, and • 2. at which concentration this agent exerts a half-maximum effect (determination of the EC50).

[2] = test system: TF-1 Cells; experiment: Proliferation assay with TF-1 cells by MTT (printed MU), peptide monomers; assay type: cell-based, human; details: TF-1 proliferation, MTT-assay data, GraphPad dose-response
Protocol: Proliferation Assay with TF-1 Cells by MU
TF-1 Cells in logarithmic growth phase (˜2.10^5-1.10^6 cells/ml; RPMI medium; 20% fetal calf serum; supplemented with Penicillin, streptomycin, L-Glutamine; 0.5 ng/ml Interleukin 3) are washed (centrifuge 5 min. 1500 rpm and resuspended in RPMI complete without IL3 at 500.000 cells/ml) and precultured before start of the assay for 24 h without IL-3. At the next day the cells are seeded in 24- or 96-well plates usually using at least 6 concentrations and 4 wells per concentration containing at least 10.000 cells/well per agent to be tested. Each experiment includes controls comprising recombinant EPO as a positive control agent and wells without addition of cytokine as negative control agent. […]
At day 4, prior to start of the analysis, a dilution series of a known number of TF-1 cells is prepared in a number of wells (0/2500/5000/10000/20000/50000 cells/well in 100 μl medium). These wells are treated in the same way as the test wells and later provide a calibration curve from which cell numbers can be determined. […] 25 μl of 10% sodium dodecyl sulfate in water are added to each well prior to measurement E492 in an ELISA Reader.
Using graphical evaluations as shown in FIGS. 17 and 18 based on calculations of the dose-response relationship using the program GraphPad the following EC50 values were determined on the basis of MU-assay data: […]

[3] = molecular target: T1, erythropoietin receptor (EPOR) on human …; experiment: cell-based or functional assay

Row | Molecule | efficacy and potency compared with other EPO mimetic peptides [1] | EC50, TF-1 cell proliferation (MTT assay) [3] [µM] | also measured
1 | AGEM40_HES: peptide (AGEM40) HESylated according to the supravalence principle (Ac-C([maleimide-HES 130 kD])GGTYSCHFGKLT[1Nal]VCKKQRGGGTYSCHFGKLT[1Nal]VCKKQRG-NH2; disulfide 7-16, 27-36 (inferred)) | highly effective and potent |  | 
2 | Ac-GGTYSCHFGKLT-Na1-VCKKQRG-Am (Ac-GGTYSCHFGKLT[1Nal]VCKKQRG-NH2; cysteine pairing not given here) [BB68] | even more effective than EMP1 and 8849 |  | efficacy and potency compared with other EPO mimetic peptides ([1]; listed as B868): improved effect
3 | GGTYSCHFGGLTWVCKPQGG |  |  | EC50 values of exemplary peptide monomers [2]: no activity
4 | GGTYSCHFGKLTWVCKKQGG [SEQ ID NO 2, EPO mimetic peptide monomer] | in the same range as EMP1 |  | 
5 | B1 |  | 3.28 | 
6 | B2 |  | 4.66 | 
7 | B3 |  | 5.16 | 
8 | B4 |  | 4.97 | 
9 | B5 |  | 2.52 | 
10 | B6 |  | 5.04 | 
